Test results reported in the DeepSol protein solubility set.

experiment: soluble on expression in E. coli; label from the status in PepcDB or PDB records

| Sequence | soluble on expression in E. coli |
| --- | --- |
| MGSDKIHHHHHHMNIKDLQYYVSLTQLKNFSLVAAQFHVSQPTISAAIRRLETELKTQLLIRANPHLPVALTTTGIQVQRHANQILLEHQLMCQEVAHTTTDQLVIGMPPIIEINYFPRIASQLPQALFSQIQPISQGSLAALKGLKNGQLDLAVLAYLNEFTDTTIQLTTFDTQSFSIVVPTDDPLATNSQLQFRSLRHQHFVALKDNFVHRQAFRQLSHQNHVRPTIVFESNEIGSILNMVRQHVGIALLSNAVQLPAGLQRLPLTDAQAPTFNVGVAYRHSMTFSPTQADLIQRLTAAFQSVDWRAY | not soluble |
| SLIDMGDYTLKELETWNEKIEGIVNEMGLNYYNQEFEIISYNGMLEAEAYTGMPSRYPHWSYGKAYEKQKTLYGYDLVGLPYEMVINSNPCIAYLMKENTLLLQILTMAHVYGHNDFFKNNRLFREGTDASETVNMFKNDADTIRNYIDNPAIGNEKVEKILDAAHAIRYQTHRVIGEKRLSYEEIRNKIIQDYNSSYKPRSIIEPYEKPVEPDLSKIPLEPEDDIIYFIENYGNLQEWERNVIEIVRRETAYFIPQIETKIMNEGWASFWHYTILNELKLPDGLHLEFLKRHNDVLSPILGSLNPYYLGFKILKDIEDRYGRDKIFEVREIERDESFIRKYLTRELCEELNLFEFSKRRGEYIIDNVADEEGWKNIRNSICSGCGMNSIPVIRVVELSKKDNNLILEHLYDGRELNMQYAEETLKYVVNLWKGKVTLKTTIEGKEYRIVCDENKKICEVK | soluble |
| MGSDKIHHHHHHMPSTFESQLFFSRPFLSKRQIQRAQKNTISDYRNYNQKKLAVFKFLSDLCVQLKFPRKTLETAVYFYQRYHLFNRFETEVCYTVATSCLTLGCKEVETIKKTNDICTLSLRLRNVVKINTDILENFKKRVFQIELRILESCSFDYRVNNYVHIDEYVIKIGRELSFDYKLCNLAWVIAYDALKLETILVIPQHSIALAILKIAYELLDNKNWSSKRYSLFETDEKSVNEAYFDIVNFYINSFDMCDLQRHLPADLLPIGVERFMELKKNAGPESGLPQIPDHLLNADPYITITRDNNVQERRYVLSLELINGESSINSSTRHA | not soluble |
| GSKKSRLWVDRSGTFKVDAEFIGCAKGKIHLHKANGVKIAVAADKLSNEDLAYVEKITGFSLEKFKAN | soluble |
| MEPVFKEPSPKKKRVENPPENAPDAPKKPQLKHESEFLRSIPSSSQYEKSFMHRDTISHVIATKTDFIITASVDGHLKFWKKKHSEGVEFVKHFRCHLSEFSHICANIDGTLLATVCEADKSVKVFDIENFDMINMIKLDFPPKTANWVHQSNDPIAHLAIGAADSGKIIVVDGKATAAPICIKDKLHSTPVKIIEYSQSLDIIVSIDESGMIECWNGERGDFQFPETKLTWEYKLETDLYDFVKAKTIPVCATFDPSGLKLATFAEDRKIRIFNVKTGKLAQLIDETTQKYHCEAKENKNYGLQHMEWSRRLASEKEMDKDKKNSLKYTKICFDQSGNFLLYPTPIGVKVFNLVTNEVSRTIGRDEAIRFVAVSLCNALPDIRQKLQGAAITLETAAADNPTLNRKTDPDPLMVCCALRKNRFYLFTNTEPYNVEDDEGNPSVSGRDVFNERPKKEDLLTALDTEGGEKVLNKEAIIHTSFGDITIRLFGDECPKTVENFCTHSRRGYYNGLTFHRVIKSFMIQTGDPSGKGTGGESIWGEDFEDEFHPRLRHDKPFKVSMANAGGGNTNGSQFFITVCPADWLDGKNTLFGEVTAGMSVVQRINQVSTFERSGRPRESIQIMSISLK | not soluble |
| MAHHHHHHMADYNAAGADTAVVDDNVPPGITTKQDEIIQYVAKYVVASCDGARYQDKVRTRTKHNPYFDFLNAKHPYHQYYQYLLESYRHWMRNSEAVGAGTWGGGVDATQGQGQQQQWNEEDYYQYYGAYAGQASGIEFQGNAAGQLGEGSSYVDASSSAHARNASSGVDPTSYESEAVTATGYGAGYDPSAVDPEPAQVATTAGGGEAQAEEDEDDEYELVMENGQWVSRKRM | soluble |
| MAHHHHHHMMYSRLFHESLGIVIISPSRSSASPALVIADAFYSAMRLQVMLAMPFVQPRFASIFRLLLRAVPLLPPFMATFTFRRCTSDLSRRSAMRCFTARLQLLTFETLLCGSHGVLPPPARLAAACARAKEEFALQCSTSAPPPTKLTTAVVATHLLHNNLRDAAAVLASHPCQQQVLEEVRDYVRQHPGVFSVSTLTGMLEEARCVSPAAVATFLRAAVDEFLRGSSAASTVGDEATAWDAQRENLRSLVLRHIRFYPACVSFLLGSLCAVSRGCAGDREDVIEVMQIAMRERSMNPRDFGGVLDVVWKSREPRRVAMMWAWMQHTSACWDVRAASIAIMAFSELHQMDEAVACIQRLAEADGDPTIDAQVAFVRFLGVRTPSLLRYAAQLVLHWHPSGERLWRGEPQAVGMELVKICCACGERKWAVEMLEQMVATNASVPAELEAFMLRPGAAALGEHYSASVAASKTLQELFIDVPLRLPNLGEQPALVGLLLSLGMVTNRLPEVYDALEKASLTPANFQDALDCFVTGSVVKAASPVAVLACVREAGVRTGHKVPKEMESWLQLATEM | not soluble |
| ERSAVQLSLSSRLQLTLYQYKTCPFCSKVRAFLDFHALPYQVVEVNPVLRAEIKFSSYRKVPILVAQEGESSQQLNDSSVIISALKTYLVSGQPLEEIITYYPAMKAVNDQGKEVTEFGNKYWLMLNEKEAQQVYSGKEARTEEMKWRQWADDWLVHLISPNVYRTPTEALASFDYIVREGKFGAVEGAVAKYMGAAAMYLISKRLKSRHRLQDNVREDLYEAADKWVAAVGKDRPFMGGQKPNLADLAVYGVLRVMEGLDAFDDLMQHTHIQPWYLRVERAITEASPAH | soluble |
| MSLGQFWHVTDLHLDPTYHITDDHTKVCASSKGANASNPGPFGDVLCDSPYQLILSAFDFIKNSGQEASFMIWTGDSPPHVPVPELSTDTVINVITNMTTTIQSLFPNLQVFPALGNHDYWPQDQLPVVTSKVYNAVANLWKPWLDEEAISTLRKGGFYSQKVTTNPNLRIISLNTNLYYGPNIMTLNKTDPANQFEWLESTLNNSQQNKEKVYIIAHVPVGYLPSSQNITAMREYYNEKLIDIFQKYSDVIAGQFYGHTHRDSIMVLSDKKGSPVNSLFVAPAVTPVKSVLEKQTNNPGIRLFQYDPRDYKLLDMLQYYLNLTEANLKGESIWKLEYILTQTYDIEDLQPESLYGLAKQFTILDSKQFIKYYNYFFVSYDSSVTCDKTCKAFQICAIMNLDNISYADCLKQLYIKHNYEGHHHHHH | not soluble |
| MGSDKIHHHHHHMKMTFCRAVCLAAAFLLMGCDEAPETTTASPAAQVLEGKTMGTLWRVSVVGIDAKRAAELQTKIQTQLDADDWLLSTYKNDSALMRFNHSRSLAPWPVSEAMADIVTSALRIGAKTDGAMDITVGPLVNLWGFGPDRQPLHIPTPAQIDAAKAKTGLQHLQVIDRAGHQFLQKDLPDLYVDLSTVGEGYAADHLARLMEQEGIARYLVSVGGALSSRGMNAQGQPWRVAIQKPTDRENAVQAIVDINGHGISTSGSYRNYYELDGKRVSHVIDPQTGRPIEHNLVSVTVIAPTALEADGWDTGLMVLGTQKAQEVVRREGLAVFMIMKEGEGFKTWMSPQFKTFLVSDKN | not soluble |
| MGSDKIHHHHHHMRDNTHSLEGVARLLLRSEAVASSRIEGIAPNSDKVAMAILARESDSEIRGFKESATAVARNVAILDTINADLAYKDELVLDDIVAMQTALVHAQFETIHPFPDGNGRVGRAMIHALLQRRGLTDAAVLPVSMVLATLGDRYVDGLTKFREGDVLAWISFFVEAAQVATTKAAELADSVAALEAEWMDKVNHHRTAQEASCHAFGHGAHREVRTGDFIDKHGPRCSRFTHRRWHST | not soluble |
| MKRFNDFSKMKAFKDAQEHGKNRYKDVGCLDNNRVKLGGAWPHEYIHANYVSTPTNPKRFICTQAPLEKTCADFWFMCLQDRVETIFMLCNYKEKGAKKCHEYLPTEDNKDTMSFKEKGQKVTVKFESSKAIKFRDNSAAKVTKTVLTVEGAGCDKLKVNHYHWIDWPDRGVPTADNAILELLEKARVSKGPIAVHCSAGIGRTGSVVMLEYVMDQLLAGQIIEDTDKIIQKIREQRNNSVQTDHQYLFVHQVMMNFFEKRGLLDEATSAIHKDFTDQYSKCVL | not soluble |
| MGSSHHHHHHSSGLVPRGSHMMRKQRIVIKISGACLKQNDSSIIDFIKINDLAEQIEKISKKYIVSIVLGGGNIWRGSIAKELDMDRNLADNMGMMATIINGLALENALNHLNVNTIVLSAIKCDKLVHESSANNIKKAIEKEQVMIFVAGTGFPYFTTDSCAAIRAAETESSIILMGKNGVDGVYDSDPKINPNAQFYEHITFNMALTQNLKVMDATALALCQENNINLLVFNIDKPNAIVDVLEKKNKYTIVSK | soluble |
